For the assay, the target named is T1, Recombinant mouse DKK1 protein (R&D) (mouse, UniProt O54908 32-272, limits assumed).
T1 construct: Bought recombinant protein, coated on the ELISA plate at 20 ng/ml
T1 sequence (looked up): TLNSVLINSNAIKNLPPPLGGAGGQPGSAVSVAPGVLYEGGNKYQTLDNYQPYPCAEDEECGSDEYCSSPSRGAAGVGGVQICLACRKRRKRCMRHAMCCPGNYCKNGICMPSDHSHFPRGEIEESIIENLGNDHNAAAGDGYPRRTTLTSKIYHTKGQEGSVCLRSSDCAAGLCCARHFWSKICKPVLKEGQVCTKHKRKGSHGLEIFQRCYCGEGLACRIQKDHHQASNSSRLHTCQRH
The assay can be described thus: ELISA, recombinant mouse DKK1 coated at 20 ng/ml. The method, then: Recombinant mouse DKK2 or DKK1 protein (20 ng/ml, R&D) in a blocking buffer (1% BSA in PBS) was incubated in a 384-well microtiter plate for overnight at 4° C. The plate was washed with PBS twice and incubated with the blocking buffer for one hour at room temperature. The plate was then incubated with the anti-DKK2 5F8 antibody in the blocking buffer for 1 hour at room temperature. After repeatedly washing, the plate was incubated with an HRP-conjugated secondary antibody for 1 hour at room temperature. A chemiluminance substrate (Thermo Fisher 37070) was added to the plate, and the plate was read by an EnVision plate reader.

B1: Mouse monoclonal antibody to DKK2 (5F8) (antibody, V domains shown)
VH: GAELVRPGASVKLSCKASGYSFTNYWMNWVKQRPGQGLEWIGMIHPSDSETRLNQKFKDKATLTVDKSSSTAYMQLSSPTSEDSAVYYCAREGRLGLRSYAMDYWGQGTSVTVSS
VL: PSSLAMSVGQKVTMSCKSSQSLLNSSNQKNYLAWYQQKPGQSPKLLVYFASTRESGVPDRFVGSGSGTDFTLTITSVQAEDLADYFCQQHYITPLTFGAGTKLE
notes: Mouse hybridoma antibody; IgG3 served as its isotype control; also called anti-DKK2 5F8 antibody; anti-DKK2 antibody 5F8
Turning to B1, the binding result is given as “no binding”.

These data come from patent US20200179510A1 (YALE UNIVERSITY, published 2020).
